The subject of data set [1] is SlNADP-ME4a. Description: initial velocity, spectrophotometric. In kind it is biochemical, Solanum lycopersicum. The note with it: pyruvate reductive carboxylation (reverse reaction); assay details not given.
Substrate in data set [2]: CC(=O)C(=O)O
The experiment in a line: initial velocity, spectrophotometric. The settings on record: pyruvate reductive carboxylation (reverse reaction); assay details not given. In kind it is biochemical, Solanum lycopersicum.

The record followed here is publication doi:10.1101/2025.02.12.637823v1 (biorxiv, 2025).

For `CC(=O)C(=O)O` [pyr], the Km in data set [1] stood at 15.5 ± 1 mM.

B1: SlNADP-ME2 (Solanum lycopersicum) (protein)
chain: MESALKDLSTPTGGVEDVYGEDCATEDQCITPWTIAVSSGYNLLRDPRYNKGLAFTERERDAHYLRGLLPPVISSQELQEKKLMQSIRQYDVPLHKYVAMMELEERNERLFYKLLIDNVEELLPIVYTPTVGEACQKYGSLFKRPQGLYISLNEKGRILEVLKNWPEKSIQVIVVTDGERILGLGDLGCQGMGIPVGKLALYTALGGVRPSACLPITIDVGTNNEKLLNDEFYIGLRQRRATGQEYYDFLHEFMSAVKQNYGEKILVQFEDFANHNAFELLAKYRTSHLVFNDDIQGTASVVLAGLIASLKLLGGALCDHTFLFLGAGEAGTGIAELIALEISNKTNIPVEETRKKIWLVDSKGLIVSGRKETLQAFKKPWAHEHEPVNNLLDAVKAVKPTVLIGTSGTGRTFTKEVVEAMACMNKRPLIMALSNPTSQAECTAEEAYTWSEGRAVFASGSPFPSFEYDGKLNIPGQANNCYIFPGFGFGLVMSGTIRVHDDMLLAASEALAAQVTEEHYAKGMIYPPFADIRKISAHIAASVAAKAYELGVATRLPRPADLVKYAESCMYTPNYRSYR
In the case of B1, in data set [2], the Km was 5.0 ± 1.1 mM and the kcat worked out at 26.5 ± 1.7 s⁻¹.

The Km is the substrate concentration at which the rate is half of its maximum. The kcat is the number of substrate molecules converted per active site and unit of time at saturation.
